Assay results: paper PMC9482650, “Quantitative fragmentomics allow affinity mapping of interactomes” (Nature Communications, 2022)
Each block holds one binder with its values, some of them ahead of it.

Assays:
Assay in all cases: holdup assay
Design in all cases: key: below the threshold = too weak to quantify, mostly under pKd 3.1 to 4
[1] = target: T1, APBA1_2, Q02410
T1 sequence (Q02410 742-832, limits assumed, looked up): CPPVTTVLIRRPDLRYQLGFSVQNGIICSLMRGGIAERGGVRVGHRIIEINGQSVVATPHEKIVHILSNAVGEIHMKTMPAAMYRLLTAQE

[2] = target: T2, DFNB31_3, Q9P202
T2 sequence (Q9P202 811-907, limits assumed, looked up): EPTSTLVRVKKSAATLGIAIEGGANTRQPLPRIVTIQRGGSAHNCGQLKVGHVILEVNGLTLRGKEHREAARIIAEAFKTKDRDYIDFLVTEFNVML

[3] = target: DLG1_1, Q12959
[4] = target: DLG2_2, Q15700
DLG2_2, Q15700, sequence (Q15700 189-283): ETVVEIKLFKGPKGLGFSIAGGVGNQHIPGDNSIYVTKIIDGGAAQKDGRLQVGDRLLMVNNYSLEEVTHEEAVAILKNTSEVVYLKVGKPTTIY

[5] = target: T3, DLG3_1, Q92796
T3 sequence (Q92796 125-227, limits assumed, looked up): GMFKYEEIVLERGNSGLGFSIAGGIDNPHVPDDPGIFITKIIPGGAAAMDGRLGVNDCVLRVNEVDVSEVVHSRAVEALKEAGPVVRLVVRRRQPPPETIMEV

[6] = target: GOPC, Q9HD26
[7] = target: T4, GRIP1_2, Q9Y3R0
T4 sequence (Q9Y3R0 145-248, limits assumed, looked up): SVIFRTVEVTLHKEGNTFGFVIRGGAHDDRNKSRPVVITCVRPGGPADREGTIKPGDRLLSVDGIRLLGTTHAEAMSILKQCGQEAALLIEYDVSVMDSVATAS

[8] = target: T5, GRIP1_3, Q9Y3R0
T5 sequence (Q9Y3R0 247-346, limits assumed, looked up): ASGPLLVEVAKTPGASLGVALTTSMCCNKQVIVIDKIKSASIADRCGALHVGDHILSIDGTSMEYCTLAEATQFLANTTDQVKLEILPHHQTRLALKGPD

[9] = target: T6, GRIP1_5, Q9Y3R0
T6 sequence (Q9Y3R0 568-668, limits assumed, looked up): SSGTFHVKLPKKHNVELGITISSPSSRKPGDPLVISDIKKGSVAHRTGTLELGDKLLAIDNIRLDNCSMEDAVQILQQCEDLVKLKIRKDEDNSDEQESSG

[10] = target: HTRA2, O43464
HTRA2, O43464, sequence (O43464 355-458): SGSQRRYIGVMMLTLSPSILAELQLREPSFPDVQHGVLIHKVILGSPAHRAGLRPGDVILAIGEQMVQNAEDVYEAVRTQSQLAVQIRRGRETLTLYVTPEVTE

[11] = target: IL16_4, Q14005
IL16_4, Q14005, sequence (Q14005 1229-1329): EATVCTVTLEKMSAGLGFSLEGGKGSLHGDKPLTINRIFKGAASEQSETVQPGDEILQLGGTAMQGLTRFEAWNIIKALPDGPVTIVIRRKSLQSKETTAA

[12] = target: Inadl_1, Q8NI35
Inadl_1, Q8NI35, sequence (Q8NI35 113-229): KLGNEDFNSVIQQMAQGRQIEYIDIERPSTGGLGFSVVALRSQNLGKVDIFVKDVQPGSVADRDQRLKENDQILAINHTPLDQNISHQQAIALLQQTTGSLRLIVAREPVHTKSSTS

[13] = target: Inadl_4, Q8NI35
Inadl_4, Q8NI35, sequence (Q8NI35 547-651): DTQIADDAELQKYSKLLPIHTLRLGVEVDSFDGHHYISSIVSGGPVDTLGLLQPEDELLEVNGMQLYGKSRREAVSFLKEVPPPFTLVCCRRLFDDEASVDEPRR

[14] = target: Inadl_8, Q8NI35
Inadl_8, Q8NI35, sequence (Q8NI35 1425-1530): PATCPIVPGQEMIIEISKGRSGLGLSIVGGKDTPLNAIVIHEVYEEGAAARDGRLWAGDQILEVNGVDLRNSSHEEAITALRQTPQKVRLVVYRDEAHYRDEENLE

[15] = target: T7, LIN7A, O14910
T7 sequence (O14910 103-200, limits assumed, looked up): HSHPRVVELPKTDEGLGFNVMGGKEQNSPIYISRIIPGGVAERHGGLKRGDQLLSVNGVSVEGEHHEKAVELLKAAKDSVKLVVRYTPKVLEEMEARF

[16] = target: LNX1_2, Q8TBB1
LNX1_2, Q8TBB1, sequence (Q8TBB1 371-470): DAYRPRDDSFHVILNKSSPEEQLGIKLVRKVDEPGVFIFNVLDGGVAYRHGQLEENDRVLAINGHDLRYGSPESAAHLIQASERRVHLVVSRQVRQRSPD

[17] = target: MAGI2_6, Q86UL8
MAGI2_6, Q86UL8, sequence (Q86UL8 1141-1229): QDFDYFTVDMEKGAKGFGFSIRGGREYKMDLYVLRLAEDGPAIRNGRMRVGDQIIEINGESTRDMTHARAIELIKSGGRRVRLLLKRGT

[18] = target: T8, MPP6, Q9NZW5
T8 sequence (Q9NZW5 125-219, limits assumed, looked up): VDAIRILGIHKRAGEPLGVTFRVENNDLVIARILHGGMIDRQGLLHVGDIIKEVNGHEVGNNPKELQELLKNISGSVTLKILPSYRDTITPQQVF

[19] = target: T9, NHERF3_3, Q5T2W1
T9 sequence (Q5T2W1 238-333, limits assumed, looked up): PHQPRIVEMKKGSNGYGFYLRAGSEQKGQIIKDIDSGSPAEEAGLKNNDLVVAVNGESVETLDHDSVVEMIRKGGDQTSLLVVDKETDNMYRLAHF

[20] = target: T10, NHERF3_4, Q5T2W1
T10 sequence (Q5T2W1 373-468, limits assumed, looked up): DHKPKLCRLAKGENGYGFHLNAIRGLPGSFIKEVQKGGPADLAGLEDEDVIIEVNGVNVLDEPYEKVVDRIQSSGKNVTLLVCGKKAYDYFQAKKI

[21] = target: PARD3_3, Q8TEW0
PARD3_3, Q8TEW0, sequence (Q8TEW0 582-685): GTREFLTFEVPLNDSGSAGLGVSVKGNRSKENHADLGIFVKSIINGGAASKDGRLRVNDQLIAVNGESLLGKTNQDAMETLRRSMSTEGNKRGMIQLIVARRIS

[22] = target: PDLIM1, O00151
PDLIM1, O00151, sequence (O00151 1-87): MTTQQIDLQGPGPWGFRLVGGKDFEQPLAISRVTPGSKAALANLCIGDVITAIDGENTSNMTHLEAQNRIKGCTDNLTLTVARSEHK

[23] = target: T11, PDZRN3_1, Q9UPQ7
T11 sequence (Q9UPQ7 244-349, limits assumed, looked up): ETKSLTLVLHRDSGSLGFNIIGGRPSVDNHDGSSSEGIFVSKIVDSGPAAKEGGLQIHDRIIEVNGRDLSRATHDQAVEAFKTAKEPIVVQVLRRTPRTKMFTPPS

[24] = target: PDZRN4_1, Q6ZMN7
PDZRN4_1, Q6ZMN7, sequence (Q6ZMN7 213-318): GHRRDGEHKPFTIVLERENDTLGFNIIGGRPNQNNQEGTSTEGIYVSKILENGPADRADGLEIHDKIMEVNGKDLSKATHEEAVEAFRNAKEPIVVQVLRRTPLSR

[25] = target: SCRIB_2, Q14160
SCRIB_2, Q14160, sequence (Q14160 857-960): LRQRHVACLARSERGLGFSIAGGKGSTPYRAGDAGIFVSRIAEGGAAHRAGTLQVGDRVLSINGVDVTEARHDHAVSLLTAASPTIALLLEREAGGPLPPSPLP

[26] = target: T12, SNTA1, Q13424
T12 sequence (Q13424 82-180, limits assumed, looked up): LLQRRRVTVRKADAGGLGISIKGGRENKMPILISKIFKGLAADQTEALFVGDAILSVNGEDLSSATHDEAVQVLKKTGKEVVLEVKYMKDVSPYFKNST

[27] = plain residues with an end cap or a label only (N-terminal biotin on a linker: ttds)
[28] = plain residues with an end cap or a label only (N-terminal biotin on a linker: ahx)

pKd [1, 27]: 3.89 | pKd [2, 27]: below the threshold | pKd [3, 27]: below the threshold | pKd [4, 27]: below the threshold | pKd [5, 27]: below the threshold | pKd [6, 27]: 3.86 | pKd [7, 27]: below the threshold | pKd [8, 27]: below the threshold | pKd [9, 27]: below the threshold | pKd [10, 27]: below the threshold | pKd [11, 27]: below the threshold | pKd [12, 27]: below the threshold | pKd [13, 27]: below the threshold | pKd [14, 27]: below the threshold | pKd [15, 27]: below the threshold | pKd [16, 27]: below the threshold | pKd [17, 27]: 3.79 | pKd [18, 27]: below the threshold | pKd [19, 27]: below the threshold | pKd [20, 27]: 4.78 | pKd [21, 27]: below the threshold | pKd [22, 27]: below the threshold | pKd [23, 27]: 4.44 | pKd [24, 27]: 4.26 | pKd [25, 27]: 3.61 | pKd [26, 27]: 3.73
Binder: IDNDTESTAL [ARHGAP17, Q68EM7]

pKd [1, 28]: below the threshold | pKd [2, 28]: below the threshold | pKd [3, 28]: below the threshold | pKd [4, 28]: below the threshold | pKd [5, 28]: below the threshold | pKd [6, 28]: below the threshold | pKd [7, 28]: below the threshold | pKd [8, 28]: below the threshold | pKd [9, 28]: below the threshold | pKd [10, 28]: below the threshold | pKd [11, 28]: below the threshold | pKd [12, 28]: below the threshold | pKd [13, 28]: below the threshold | pKd [14, 28]: below the threshold | pKd [15, 28]: below the threshold | pKd [16, 28]: below the threshold | pKd [17, 28]: below the threshold | pKd [18, 28]: below the threshold | pKd [19, 28]: below the threshold | pKd [20, 28]: below the threshold | pKd [21, 28]: below the threshold | pKd [22, 28]: below the threshold | pKd [23, 28]: below the threshold | pKd [24, 28]: below the threshold | pKd [25, 28]: below the threshold | pKd [26, 28]: below the threshold
Binder: TEAKLTETNA [MYO18A, Q92614]

pKd [1, 27]: 3.6 | pKd [2, 27]: below the threshold | pKd [3, 27]: 4.45 | pKd [4, 27]: 4.58 | pKd [5, 27]: 3.96 | pKd [6, 27]: below the threshold | pKd [7, 27]: below the threshold | pKd [8, 27]: below the threshold | pKd [9, 27]: below the threshold | pKd [10, 27]: below the threshold | pKd [11, 27]: below the threshold | pKd [12, 27]: below the threshold | pKd [13, 27]: below the threshold | pKd [14, 27]: below the threshold | pKd [15, 27]: below the threshold | pKd [16, 27]: below the threshold | pKd [17, 27]: 4.05 | pKd [18, 27]: below the threshold | pKd [19, 27]: below the threshold | pKd [20, 27]: below the threshold | pKd [21, 27]: below the threshold | pKd [22, 27]: below the threshold | pKd [23, 27]: 4.4 | pKd [24, 27]: 4.46 | pKd [25, 27]: 4.72 | pKd [26, 27]: 4.52
Binder: VLRLQSETSV [VANGL1, Q8TAA9]

pKd [1, 27]: below the threshold | pKd [2, 27]: below the threshold | pKd [3, 27]: 3.68 | pKd [4, 27]: 3.61 | pKd [5, 27]: below the threshold | pKd [6, 27]: below the threshold | pKd [7, 27]: below the threshold | pKd [8, 27]: below the threshold | pKd [9, 27]: below the threshold | pKd [10, 27]: below the threshold | pKd [11, 27]: below the threshold | pKd [12, 27]: below the threshold | pKd [13, 27]: below the threshold | pKd [14, 27]: below the threshold | pKd [15, 27]: below the threshold | pKd [16, 27]: 3.52 | pKd [17, 27]: 4.36 | pKd [18, 27]: below the threshold | pKd [19, 27]: below the threshold | pKd [20, 27]: 3.81 | pKd [21, 27]: 3.7 | pKd [22, 27]: 3.69 | pKd [23, 27]: 4.67 | pKd [24, 27]: 4.41 | pKd [25, 27]: 3.9 | pKd [26, 27]: 4.38
Binder: QSARYRDTEL [TJP2, Q9UDY2]

pKd [1, 27]: 3.79 | pKd [2, 27]: below the threshold | pKd [3, 27]: below the threshold | pKd [4, 27]: 4.47 | pKd [5, 27]: below the threshold | pKd [6, 27]: 4.01 | pKd [7, 27]: below the threshold | pKd [8, 27]: below the threshold | pKd [9, 27]: below the threshold | pKd [10, 27]: below the threshold | pKd [11, 27]: below the threshold | pKd [12, 27]: below the threshold | pKd [13, 27]: below the threshold | pKd [14, 27]: below the threshold | pKd [15, 27]: below the threshold | pKd [16, 27]: below the threshold | pKd [17, 27]: below the threshold | pKd [18, 27]: below the threshold | pKd [19, 27]: below the threshold | pKd [20, 27]: below the threshold | pKd [21, 27]: 4.04 | pKd [22, 27]: below the threshold | pKd [23, 27]: 4.97 | pKd [24, 27]: 4.97 | pKd [25, 27]: 3.83 | pKd [26, 27]: 4.06
Binder: GQDSREETQL [KCNT2, Q6UVM3]
